Patent US20060182721A1

Molecular target: Notch on human peripheral blood CD14-positive cells (human)
Experiment: cell-based or functional assay

level of HES-1 gene expression (real-time RT-PCR, ratio to GAPDH) in CD14-positive cells after 24 hours of culture: 8 times
Substance: Delta-1 construct composed of the human Delta-1 extracellular domain and 6 myc proteins (from UniProt O00548 18-545) (ligand)
